Target: human Tau protein (human, UniProt P10636-8 1-441, limits assumed)
Assay: method not stated

Sequence of human Tau protein (P10636 other isoform, or with tags, fused parts or gaps limits assumed): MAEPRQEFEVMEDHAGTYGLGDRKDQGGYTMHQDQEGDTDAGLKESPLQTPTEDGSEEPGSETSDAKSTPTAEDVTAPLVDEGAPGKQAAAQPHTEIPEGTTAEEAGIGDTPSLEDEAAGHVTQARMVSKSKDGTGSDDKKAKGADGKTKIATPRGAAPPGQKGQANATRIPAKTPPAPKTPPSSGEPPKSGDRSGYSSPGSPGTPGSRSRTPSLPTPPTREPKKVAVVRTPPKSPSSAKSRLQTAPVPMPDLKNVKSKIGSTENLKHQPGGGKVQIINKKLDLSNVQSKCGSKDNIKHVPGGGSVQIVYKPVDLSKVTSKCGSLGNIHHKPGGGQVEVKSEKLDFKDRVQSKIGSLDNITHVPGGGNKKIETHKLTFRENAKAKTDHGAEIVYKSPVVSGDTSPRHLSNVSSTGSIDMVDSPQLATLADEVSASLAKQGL

B1: mouse monoclonal anti-Tau antibody clone 13A6 (antibody, V domains shown)
VH: EVQLQQSGAELVRPGASVKLPCTASGFNIKDDYMNWVMQRPERGLEWIGWIDPENGDTAYASKFQGKATMTADTSSNTAYLQLSSLTSEDTAVYYCTSGGRFDYWGQGTSLTVSS
VL: DVLMTQTPLSLPVSLGDQASISCRSSQSIVHSNGSTYLEWYLQKPGQSPKLLIYKVSNRFSGVPDRFSGSGSGTDFTLKINRVEAEDLGVYYCFQGSHVPWTFGGGTKLEIK
notes: Mouse monoclonal from a hybridoma; also called mAb 13A6; antibody 13A6
For B1, the Kd was 9.7 nM.

From patent publication US20150253341A1 (Merck Sharp & Dohme, published 2015)
